{"source": "ChEMBL document CHEMBL3508693", "proteins": {"B1": {"name": "Cytochrome P450 4A11 (Homo sapiens) (protein)", "chain": "MSVSVLSPSRLLGDVSGILQAASLLILLLLLIKAVQLYLHRQWLLKALQQFPCPPSHWLFGHIQELQQDQELQRIQKWVETFPSACPHWLWGGKVRVQLYDPDYMKVILGRSDPKSHGSYRFLAPWIGYGLLLLNGQTWFQHRRMLTPAFHYDILKPYVGLMADSVRVMLDKWEELLGQDSPLEVFQHVSLMTLDTIMKCAFSHQGSIQVDRNSQSYIQAISDLNNLVFSRVRNAFHQNDTIYSLTSAGRWTHRACQLAHQHTDQVIQLRKAQLQKEGELEKIKRKRHLDFLDILLLAKMENGSILSDKDLRAEVDTFMFEGHDTTASGISWILYALATHPKHQERCREEIHSLLGDGASITWNHLDQMPYTTMCIKEALRLYPPVPGIGRELSTPVTFPDGRSLPKGIMVLLSIYGLHHNPKVWPNPEVFDPFRFAPGSAQHSHAFLPFSGGSRNCIGKQFAMNELKVATALTLLRFELLPDPTRIPIPIARLVLKSKNGIHLRLRRLPNPCEDKDQL"}, "B2": {"name": "Cytochrome P450 2E1 (Homo sapiens) (protein)", "chain": "MSALGVTVALLVWAAFLLLVSMWRQVHSSWNLPPGPFPLPIIGNLFQLELKNIPKSFTRLAQRFGPVFTLYVGSQRMVVMHGYKAVKEALLDYKDEFSGRGDLPAFHAHRDRGIIFNNGPTWKDIRRFSLTTLRNYGMGKQGNESRIQREAHFLLEALRKTQGQPFDPTFLIGCAPCNVIADILFRKHFDYNDEKFLRLMYLFNENFHLLSTPWLQLYNNFPSFLHYLPGSHRKVIKNVAEVKEYVSERVKEHHQSLDPNCPRDLTDCLLVEMEKEKHSAERLYTMDGITVTVADLFFAGTETTSTTLRYGLLILMKYPEIEEKLHEEIDRVIGPSRIPAIKDRQEMPYMDAVVHEIQRFITLVPSNLPHEATRDTIFRGYLIPKGTVVVPTLDSVLYDNQEFPDPEKFKPEHFLNENGKFKYSDYFKPFSTGKRVCAGEGLARMELFLLLCAILQHFNLKPLVDPKDIDLSPIHIGFGCIPPRYKLCVIPRS"}, "B3": {"name": "Cytochrome P450 3A5 (Homo sapiens) (protein)", "chain": "MDLIPNLAVETWLLLAVSLVLLYLYGTRTHGLFKRLGIPGPTPLPLLGNVLSYRQGLWKFDTECYKKYGKMWGTYEGQLPVLAITDPDVIRTVLVKECYSVFTNRRSLGPVGFMKSAISLAEDEEWKRIRSLLSPTFTSGKLKEMFPIIAQYGDVLVRNLRREAEKGKPVTLKDIFGAYSMDVITGTSFGVNIDSLNNPQDPFVESTKKFLKFGFLDPLFLSIILFPFLTPVFEALNVSLFPKDTINFLSKSVNRMKKSRLNDKQKHRLDFLQLMIDSQNSKETESHKALSDLELAAQSIIFIFAGYETTSSVLSFTLYELATHPDVQQKLQKEIDAVLPNKAPPTYDAVVQMEYLDMVVNETLRLFPVAIRLERTCKKDVEINGVFIPKGSMVVIPTYALHHDPKYWTEPEEFRPERFSKKKDSIDPYIYTPFGTGPRNCIGMRFALMNMKLALIRVLQNFSFKPCKETQIPLKLDTQGLLQPEKPIVLKVDSRDGTLSGE"}, "B4": {"name": "Cytochrome P450 3A7 (Homo sapiens) (protein)", "chain": "MDLIPNLAVETWLLLAVSLILLYLYGTRTHGLFKKLGIPGPTPLPFLGNALSFRKGYWTFDMECYKKYRKVWGIYDCQQPMLAITDPDMIKTVLVKECYSVFTNRRPFGPVGFMKNAISIAEDEEWKRIRSLLSPTFTSGKLKEMVPIIAQYGDVLVRNLRREAETGKPVTLKHVFGAYSMDVITSTSFGVSIDSLNNPQDPFVENTKKLLRFNPLDPFVLSIKVFPFLTPILEALNITVFPRKVISFLTKSVKQIKEGRLKETQKHRVDFLQLMIDSQNSKDSETHKALSDLELMAQSIIFIFAGYETTSSVLSFIIYELATHPDVQQKVQKEIDTVLPNKAPPTYDTVLQLEYLDMVVNETLRLFPVAMRLERVCKKDVEINGMFIPKGVVVMIPSYVLHHDPKYWTEPEKFLPERFSKKNKDNIDPYIYTPFGSGPRNCIGMRFALVNMKLALVRVLQNFSFKPCKETQIPLKLRFGGLLLTEKPIVLKAESRDETVSGA"}, "B5": {"name": "Cytochrome P450 2D6 (Homo sapiens) (protein)", "chain": "MGLEALVPLAVIVAIFLLLVDLMHRRQRWAARYPPGPLPLPGLGNLLHVDFQNTPYCFDQLRRRFGDVFSLQLAWTPVVVLNGLAAVREALVTHGEDTADRPPVPITQILGFGPRSQGVFLARYGPAWREQRRFSVSTLRNLGLGKKSLEQWVTEEAACLCAAFANHSGRPFRPNGLLDKAVSNVIASLTCGRRFEYDDPRFLRLLDLAQEGLKEESGFLREVLNAVPVLLHIPALAGKVLRFQKAFLTQLDELLTEHRMTWDPAQPPRDLTEAFLAEMEKAKGNPESSFNDENLRIVVADLFSAGMVTTSTTLAWGLLLMILHPDVQRRVQQEIDDVIGQVRRPEMGDQAHMPYTTAVIHEVQRFGDIVPLGVTHMTSRDIEVQGFRIPKGTTLITNLSSVLKDEAVWEKPFRFHPEHFLDAQGHFVKPEAFLPFSAGRRACLGEPLARMELFLFFTSLLQHFSFSVPTGQPRPSHHGVFAFLVSPSPYELCAVPR"}, "B6": {"name": "Cytochrome P450 4F3 (Homo sapiens) (protein)", "chain": "MPQLSLSSLGLWPMAASPWLLLLLVGASWLLARILAWTYTFYDNCCRLRCFPQPPKRNWFLGHLGLIHSSEEGLLYTQSLACTFGDMCCWWVGPWHAIVRIFHPTYIKPVLFAPAAIVPKDKVFYSFLKPWLGDGLLLSAGEKWSRHRRMLTPAFHFNILKPYMKIFNESVNIMHAKWQLLASEGSARLDMFEHISLMTLDSLQKCVFSFDSHCQEKPSEYIAAILELSALVTKRHQQILLYIDFLYYLTPDGQRFRRACRLVHDFTDAVIQERRRTLPSQGVDDFLQAKAKSKTLDFIDVLLLSKDEDGKKLSDEDIRAEADTFMFEGHDTTASGLSWVLYHLAKHPEYQERCRQEVQELLKDREPKEIEWDDLAQLPFLTMCIKESLRLHPPVPAVSRCCTQDIVLPDGRVIPKGIICLISVFGTHHNPAVWPDPEVYDPFRFDPKNIKERSPLAFIPFSAGPRNCIGQAFAMAEMKVVLGLTLLRFRVLPDHTEPRRKPELVLRAEGGLWLRVEPLS"}, "B7": {"name": "Cytochrome P450 2J2 (Homo sapiens) (protein)", "chain": "MLAAMGSLAAALWAVVHPRTLLLGTVAFLLAADFLKRRRPKNYPPGPWRLPFLGNFFLVDFEQSHLEVQLFVKKYGNLFSLELGDISAVLITGLPLIKEALIHMDQNFGNRPVTPMREHIFKKNGLIMSSGQAWKEQRRFTLTALRNFGLGKKSLEERIQEEAQHLTEAIKEENGQPFDPHFKINNAVSNIICSITFGERFEYQDSWFQQLLKLLDEVTYLEASKTCQLYNVFPWIMKFLPGPHQTLFSNWKKLKLFVSHMIDKHRKDWNPAETRDFIDAYLKEMSKHTGNPTSSFHEENLICSTLDLFFAGTETTSTTLRWALLYMALYPEIQEKVQAEIDRVIGQGQQPSTAARESMPYTNAVIHEVQRMGNIIPLNVPREVTVDTTLAGYHLPKGTMILTNLTALHRDPTEWATPDTFNPDHFLENGQFKKREAFMPFSIGKRACLGEQLARTELFIFFTSLMQKFTFRPPNNEKLSLKFRMGITISPVSHRLCAVPQV"}, "B8": {"name": "Cytochrome P450 4F2 (Homo sapiens) (protein)", "chain": "MSQLSLSWLGLWPVAASPWLLLLLVGASWLLAHVLAWTYAFYDNCRRLRCFPQPPRRNWFWGHQGMVNPTEEGMRVLTQLVATYPQGFKVWMGPISPLLSLCHPDIIRSVINASAAIAPKDKFFYSFLEPWLGDGLLLSAGDKWSRHRRMLTPAFHFNILKPYMKIFNESVNIMHAKWQLLASEGSACLDMFEHISLMTLDSLQKCVFSFDSHCQEKPSEYIAAILELSALVSKRHHEILLHIDFLYYLTPDGQRFRRACRLVHDFTDAVIQERRRTLPSQGVDDFLQAKAKSKTLDFIDVLLLSKDEDGKKLSDEDIRAEADTFMFEGHDTTASGLSWVLYHLAKHPEYQERCRQEVQELLKDREPKEIEWDDLAHLPFLTMCMKESLRLHPPVPVISRHVTQDIVLPDGRVIPKGIICLISVFGTHHNPAVWPDPEVYDPFRFDPENIKERSPLAFIPFSAGPRNCIGQTFAMAEMKVVLALTLLRFRVLPDHTEPRRKPELVLRAEGGLWLRVEPLS"}}, "type_in_all_cases": "ADME, microsomes", "key": {"[1]": {"substrate": "COCCCOc1cc(C[C@@H](C[C@H](N)[C@@H](O)C[C@H](C(=O)NCC(C)(C)C(N)=O)C(C)C)C(C)C)ccc1OC", "assay": "Enzyme kinetics constant (Km value) for CYP4A11 was determined in human liver microsome incubated with [14C]SPP100 hemifumarate"}, "[2]": {"substrate": "COCCCOc1cc(C[C@@H](C[C@H](N)[C@@H](O)C[C@H](C(=O)NCC(C)(C)C(N)=O)C(C)C)C(C)C)ccc1OC", "assay": "Enzyme kinetics constant (Km value) for CYP2E1 was determined in human liver microsome incubated with [14C]SPP100 hemifumarate"}, "[3]": {"substrate": "COCCCOc1cc(C[C@@H](C[C@H](N)[C@@H](O)C[C@H](C(=O)NCC(C)(C)C(N)=O)C(C)C)C(C)C)ccc1OC", "assay": "Enzyme kinetics constant (Km value) for CYP3A5 was determined in human liver microsome incubated with [14C]SPP100 hemifumarate"}, "[4]": {"substrate": "COCCCOc1cc(C[C@@H](C[C@H](N)[C@@H](O)C[C@H](C(=O)NCC(C)(C)C(N)=O)C(C)C)C(C)C)ccc1OC", "assay": "Enzyme kinetics constant (Km value) for CYP3A7 was determined in human liver microsome incubated with [14C]SPP100 hemifumarate"}, "[5]": {"substrate": "COCCCOc1cc(C[C@@H](C[C@H](N)[C@@H](O)C[C@H](C(=O)NCC(C)(C)C(N)=O)C(C)C)C(C)C)ccc1OC", "assay": "Enzyme kinetics constant (Km value) for CYP2D6 was determined in human liver microsome incubated with [14C]SPP100 hemifumarate"}, "[6]": {"substrate": "COCCCOc1cc(C[C@@H](C[C@H](N)[C@@H](O)C[C@H](C(=O)NCC(C)(C)C(N)=O)C(C)C)C(C)C)ccc1OC", "assay": "Enzyme kinetics constant (Km value) for CYP4F3B was determined in human liver microsome incubated with [14C]SPP100 hemifumarate"}, "[7]": {"substrate": "COCCCOc1cc(C[C@@H](C[C@H](N)[C@@H](O)C[C@H](C(=O)NCC(C)(C)C(N)=O)C(C)C)C(C)C)ccc1OC", "assay": "Enzyme kinetics constant (Km value) for CYP2J2 was determined in human liver microsome incubated with [14C]SPP100 hemifumarate"}, "[8]": {"substrate": "COCCCOc1cc(C[C@@H](C[C@H](N)[C@@H](O)C[C@H](C(=O)NCC(C)(C)C(N)=O)C(C)C)C(C)C)ccc1OC", "assay": "Enzyme kinetics constant (Km value) for CYP4F2 was determined in human liver microsome incubated with [14C]SPP100 hemifumarate"}}}
{"protein": "B1", "values": [{"measurement": "Km", "setting": "[1]", "result": 3.1, "unit": "µM"}, {"measurement": "Vmax", "setting": "[1]", "result": "1.55e-05", "unit": "µmol/min/mg"}]}
{"protein": "B2", "values": [{"measurement": "Km", "setting": "[2]", "result": 31.9, "unit": "µM"}, {"measurement": "Vmax", "setting": "[2]", "result": "4.62e-05", "unit": "µmol/min/mg"}]}
{"protein": "B3", "values": [{"measurement": "Km", "setting": "[3]", "result": 28.7, "unit": "µM"}, {"measurement": "Vmax", "setting": "[3]", "result": 0.00135, "unit": "µmol/min/mg"}]}
{"protein": "B4", "values": [{"measurement": "Km", "setting": "[4]", "result": 32.6, "unit": "µM"}, {"measurement": "Vmax", "setting": "[4]", "result": 0.000113, "unit": "µmol/min/mg"}]}
{"protein": "B5", "values": [{"measurement": "Km", "setting": "[5]", "result": 73.6, "unit": "µM"}, {"measurement": "Vmax", "setting": "[5]", "result": 0.00548, "unit": "µmol/min/mg"}]}
{"protein": "B6", "values": [{"measurement": "Km", "setting": "[6]", "result": 5, "unit": "µM"}, {"measurement": "Vmax", "setting": "[6]", "result": 0.000121, "unit": "µmol/min/mg"}]}
{"protein": "B7", "values": [{"measurement": "Km", "setting": "[7]", "result": 67, "unit": "µM"}, {"measurement": "Vmax", "setting": "[7]", "result": 0.000604, "unit": "µmol/min/mg"}]}
{"protein": "B8", "values": [{"measurement": "Km", "setting": "[8]", "result": 11.3, "unit": "µM"}, {"measurement": "Vmax", "setting": "[8]", "result": "8.91e-05", "unit": "µmol/min/mg"}]}
